According to article PMC10175485, “Detecting recurrent passenger mutations in melanoma by targeted UV damage sequencing”:

Biological target: T1, ETS1 DNA-binding domain (Ets-1 ΔN280) (Mus musculus (murine), UniProt P27577 281-440, del1-280)
T1 sequence: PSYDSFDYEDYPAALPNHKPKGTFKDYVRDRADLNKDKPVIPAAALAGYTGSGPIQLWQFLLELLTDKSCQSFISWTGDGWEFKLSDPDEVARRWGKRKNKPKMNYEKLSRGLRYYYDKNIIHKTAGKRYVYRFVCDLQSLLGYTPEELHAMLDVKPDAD
Assay: EMSA; not stated in the material (as described previously, ref 25)
Conditions: protein: recombinant; tags: C-terminal His6 removed by thrombin; label: 5' 32P on strand 1 (STK19-RVS); 5' biotin on strand 2 (STK19-FWD); blunt

B1: STK19 D89 oligonucleotide (STK19-RVS/STK19-FWD) (dsDNA)
DNA 1: CCTGAAAATAGGGTCTTCCGGCGCAGAGCA
DNA 2: TGCTCTGCGCCGGAAGACCCTATTTTCAGG
B1: binds.
